Here are results for one substance from patent US20230105667A1, “MESENCHYMAL STROMAL CELLS AND EXTRACELLULAR VESICLES FOR TREATING VIRAL INFECTIONS, INFLAMMATION, AND TISSUE FIBROSIS” (EXOSTEM BIOTEC LTD., priority 2020, published 2023).

In this test the target is human ACE2 on cells (human lung epithelial cells expressing ACE2 (human) (UniProt Q9BYF1)). Description: cell-based or functional assay.
Chain of UniProt Q9BYF1 (Q9BYF1 18-805 limits assumed): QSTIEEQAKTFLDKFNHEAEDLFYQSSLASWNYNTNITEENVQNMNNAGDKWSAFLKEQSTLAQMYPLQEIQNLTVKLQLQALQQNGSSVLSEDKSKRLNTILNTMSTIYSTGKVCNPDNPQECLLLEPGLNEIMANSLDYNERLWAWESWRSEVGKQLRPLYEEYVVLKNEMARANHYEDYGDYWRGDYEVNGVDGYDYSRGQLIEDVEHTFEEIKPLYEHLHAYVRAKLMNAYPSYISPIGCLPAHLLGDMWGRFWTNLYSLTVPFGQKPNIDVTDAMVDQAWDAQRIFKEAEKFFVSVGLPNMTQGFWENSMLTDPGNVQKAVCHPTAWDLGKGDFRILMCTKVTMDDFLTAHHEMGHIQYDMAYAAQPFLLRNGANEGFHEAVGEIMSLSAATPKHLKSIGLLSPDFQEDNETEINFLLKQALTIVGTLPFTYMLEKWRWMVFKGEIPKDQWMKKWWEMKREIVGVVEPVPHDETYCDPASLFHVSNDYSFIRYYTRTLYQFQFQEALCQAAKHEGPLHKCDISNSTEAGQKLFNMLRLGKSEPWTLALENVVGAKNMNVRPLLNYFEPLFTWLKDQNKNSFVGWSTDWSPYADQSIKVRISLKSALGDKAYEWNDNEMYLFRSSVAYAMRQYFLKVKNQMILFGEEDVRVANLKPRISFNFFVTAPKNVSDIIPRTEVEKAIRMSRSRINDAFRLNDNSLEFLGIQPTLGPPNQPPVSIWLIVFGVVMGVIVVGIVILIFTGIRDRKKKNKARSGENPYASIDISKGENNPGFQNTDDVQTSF

As to “SARS-CoV-2 receptor-binding-domain (RBD) displayed on extracellular vesicles from MSCs (ligand)”, the TNFα levels in HBE cells treated with RBD recombinant protein turned out to be 50%.
